# Source: paper PMC12133298
# Tested on: Rho Y80C (Escherichia coli)
# Experiment: EMSA
# Details: 37 C, 1 mM ATP, 25 mM Tris-Cl pH 8.0, 50 mM KCl, 5 mM MgCl2, 1 mM DTT, 37 C (or 4 C), 15 min, 0.8% agarose 0.5x TBE, 5 nM DNA
substance,measurement,setting,value
3.5 kb linear dsDNA,Kd,5 mM Mg2+,180 nM
pBR322,binding signal (fold weaker than WT),,7
